Reference: patent US20250092135A1 (NANJING LEADS BIOLABS, published 2025)

Molecular target: T1, human GPRC5D protein (human, UniProt Q9NZD1 1-345)
T1 construct: NCI-H929 cells express it endogenously in the functional assays; also called HuGPRC5D; huGPRC5D
Experiment: flow cytometry, HEK293T cells stably expressing human GPRC5D (sheet: 293T-huGPRC5D), PE anti-human IgG Fc secondary, MFI
Method: (2) Whether the anti-CD3/anti-GPRC5D bispecific antibodies in the present invention could bind to HEK293T cells stably expressing the human GPRC5D protein was determined by cell binding experiments. […] The plate was centrifuged at room temperature at 400×g, and then the supernatant was discarded. The cells were washed twice with PBS and centrifuged. The supernatant was discarded. The cell pellet was resuspended in fluorescent secondary antibody R-PE-conjugated AffiniPure Goat Anti-Human IgG, Fcγ Fragment Specific (Jackson ImmunoResearch, Cat #109-116-098) diluted in a 1:200 ratio. The cells were incubated in the dark at 4° C. for 30 min. The cells were washed twice with PBS, and 100 μL of PBS was added to each well to resuspend the cells. Fluorescence signals were detected using a Beckman Cytoflex flow cytometer.

T1 sequence (Q9NZD1 whole entry): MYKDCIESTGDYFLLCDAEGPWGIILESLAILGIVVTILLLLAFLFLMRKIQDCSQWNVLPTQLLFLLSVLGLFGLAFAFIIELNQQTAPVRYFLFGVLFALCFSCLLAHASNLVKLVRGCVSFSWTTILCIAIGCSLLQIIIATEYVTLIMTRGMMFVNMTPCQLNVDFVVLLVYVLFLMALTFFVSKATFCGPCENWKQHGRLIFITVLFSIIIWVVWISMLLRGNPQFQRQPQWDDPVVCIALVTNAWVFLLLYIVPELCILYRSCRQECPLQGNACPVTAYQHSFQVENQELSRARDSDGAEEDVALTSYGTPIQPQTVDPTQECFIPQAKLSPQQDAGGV

Binder	EC50 (read off the curve)
anti-CD3/GPRC5D bispecific antibody Bi-29H6/23L2 (bispecific antibody, human IgG1, kappa, L234A L235A) heavy 1: QVQLVQSGAEVKKPGASVKVSCKASGYTFTTHYMYWVRQAPGQGLEWIGGINPSNGATNFNEKFKTKATLTVDKSTSTAYMELSSLRSEDTAVYYCTRVGGLSYTMDYWGQGTLVTVSSASTKGPSVFPLAPSSKSTSGGTAALGCLVKDYFPEPVTVSWNSGALTSGVHTFPAVLQSSGLYSLSSVVTVPSSSLGTQTYICNVNHKPSNTKVDKKVEPKSCDKTHTCPPCPAPEAAGGPSVFLFPPKPKDTLMISRTPEVTCVVVAVSHEDPEVKFNWYVDGVEVHNAKTKPREEQYNSTYRVVSVLTVLHQDWLNGKEYKCKVSNKALAAPIEKTISKAKGQPREPQVCTLPPSRDELTKNQVSLSCAVKGFYPSDIAVEWESNGQPENNYKTTPPVLDSDGSFFLVSKLTVDKSRWQQGNVFSCSVMHEALHNHYTQKSLSLSPGK heavy 2: not shown light: not shown	~3 nM
anti-CD3/GPRC5D bispecific antibody Bi-29H6-1 (bispecific antibody) EPKSSDKTHTCPPCPAPEAAGGPSVFLFPPKPKDTLMISRTPEVTCVVVAVSHEDPEVKFNWYVDGVEVHNAKTKPREEQYNSTYRVVSVLTVLHQDWLNGKEYKCKVSNKALAAPIEKTISKAKGQPREPQVCTLPPSRDELTKNQVSLSCAVKGFYPSDIAVEWESNGQPENNYKTTPPVLDSDGSFFLVSKLTVDKSRWQQGNVFSCSVMHEALHNHYTQKSLSLSPGK heavy: not shown light: not shown	~6 nM
anti-CD3/GPRC5D bispecific antibody Bi-29H6-3 (bispecific antibody) EPKSSDKTHTCPPCPAPEAAGGPSVFLFPPKPKDTLMISRTPEVTCVVVAVSHEDPEVKFNWYVDGVEVHNAKTKPREEQYNSTYRVVSVLTVLHQDWLNGKEYKCKVSNKALAAPIEKTISKAKGQPREPQVCTLPPSRDELTKNQVSLSCAVKGFYPSDIAVEWESNGQPENNYKTTPPVLDSDGSFFLVSKLTVDKSRWQQGNVFSCSVMHEALHNHYTQKSLSLSPGK heavy: not shown light: not shown	~10 nM

More lines, now with the values ahead:

EC50 (read off the curve)	Binder
~2 nM	anti-CD3/GPRC5D bispecific antibody Bi-29H6-2 (bispecific antibody, human IgG1, kappa, L234A L235A) heavy 1: QVQLVQSGAEVKKPGASVKVSCKASGYTFTTHYMYWVRQAPGQGLEWIGGINPSNGATNFNEKFKTKATLTVDKSTSTAYMELSSLRSEDTAVYYCTRVGGLSYTMDYWGQGTLVTVSSASTKGPSVFPLAPSSKSTSGGTAALGCLVKDYFPEPVTVSWNSGALTSGVHTFPAVLQSSGLYSLSSVVTVPSSSLGTQTYICNVNHKPSNTKVDKKVEPKSCDKTHTCPPCPAPEAAGGPSVFLFPPKPKDTLMISRTPEVTCVVVAVSHEDPEVKFNWYVDGVEVHNAKTKPREEQYNSTYRVVSVLTVLHQDWLNGKEYKCKVSNKALAAPIEKTISKAKGQPREPQVCTLPPSRDELTKNQVSLSCAVKGFYPSDIAVEWESNGQPENNYKTTPPVLDSDGSFFLVSKLTVDKSRWQQGNVFSCSVMHEALHNHYTQKSLSLSPGK heavy 2: not shown light: not shown
~3 nM	anti-CD3/GPRC5D bispecific antibody Bi-29H6GE/23L2 (bispecific antibody, human IgG1, kappa, L234A L235A) heavy 1: QVQLVQSGAEVKKPGASVKVSCKASGYTFTTHYMYWVRQAPGQGLEWIGGINPSNEATNFNEKFKTKATLTVDKSTSTAYMELSSLRSEDTAVYYCTRVGGLSYTMDYWGQGTLVTVSSASTKGPSVFPLAPSSKSTSGGTAALGCLVKDYFPEPVTVSWNSGALTSGVHTFPAVLQSSGLYSLSSVVTVPSSSLGTQTYICNVNHKPSNTKVDKKVEPKSCDKTHTCPPCPAPEAAGGPSVFLFPPKPKDTLMISRTPEVTCVVVAVSHEDPEVKFNWYVDGVEVHNAKTKPREEQYNSTYRVVSVLTVLHQDWLNGKEYKCKVSNKALAAPIEKTISKAKGQPREPQVCTLPPSRDELTKNQVSLSCAVKGFYPSDIAVEWESNGQPENNYKTTPPVLDSDGSFFLVSKLTVDKSRWQQGNVFSCSVMHEALHNHYTQKSLSLSPGK heavy 2: not shown light: not shown
